Test [1] has as its target T1, Fc-NKG2D.wt (natural human NKG2D ectodomain fused to the C-terminus of human IgG1 Fc) (human).
T1 construct: also called natural Fc-NKG2D; wild-type Fc-NKG2D
As to the kind of experiment: ELISA, rituximab MicAbody on Fc-NKG2D (legend of FIGS. 16A and 16B). Background: An ELISA detects its analyte on a solid surface through an enzyme-linked reagent.

Test [2] addresses T1, Fc-NKG2D.wt (natural human NKG2D …). Put plainly: titration ELISA, Fc-NKG2D coated, rituximab MicAbody titrated.
For test [3] the target is unchanged. Put plainly: ELISA, Fc-NKG2D coated, MicAbody titrated from 300 nM (GraphPad Prism). Here is the method:
(§1) The binding affinities of α1-α2 variants to the extracellular domains of natural (wild-type) NKG2D and non-natural eNKG2D proteins were analyzed using a plate-based ELISA method. […] The plates were washed three times in PBS/0.05% Tween-20 (PBS-T) at 20-22° C., and blocked with 0.5% bovine serum albumin in PBS (PBS-B) for 2 hours at 20-22° C.

The target of test [4] is T2, Fc-NKG2D.Y152A (human).
T2 construct: also called NKG2D.YA; Fc-NKG2D.YA
T2 sequence (chain, as listed by the source Y152A Y152A limits assumed): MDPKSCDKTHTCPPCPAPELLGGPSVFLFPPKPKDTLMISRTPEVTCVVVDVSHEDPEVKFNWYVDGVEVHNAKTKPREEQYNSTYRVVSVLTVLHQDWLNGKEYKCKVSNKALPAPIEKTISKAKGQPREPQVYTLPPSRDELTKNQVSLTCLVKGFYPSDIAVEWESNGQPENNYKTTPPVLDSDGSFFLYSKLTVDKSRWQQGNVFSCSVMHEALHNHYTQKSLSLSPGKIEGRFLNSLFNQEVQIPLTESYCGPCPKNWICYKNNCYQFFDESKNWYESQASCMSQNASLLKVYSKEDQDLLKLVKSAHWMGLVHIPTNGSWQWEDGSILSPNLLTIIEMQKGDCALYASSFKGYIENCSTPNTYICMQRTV
Put plainly: ELISA, Fc-eNKG2D coated, MicAbody titrated from 300 nM. Here is the method: as §1

The target of test [5] is T1, Fc-NKG2D.wt (natural human NKG2D …). Put plainly: ELISA, Fc-NKG2D coated, rituximab MicAbody titrated (FIGS. 16A and 16B).
Test [6] has as its target Fc-NKG2D.AF, eNKG2D5 (Y152A/Y199F) (human). The test is described as above.
Test [7] has as its target T2, Fc-NKG2D.Y152A. Described as above.
For test [8], the target named is T2, Fc-NKG2D.Y152A. As to the kind of experiment: ELISA and Octet.

Data on six molecules can be found in patent US20250109178A1 (XYPHOS BIOSCIENCES, published 2025).

T1 sequence (chain, as listed by the source limits assumed): as the sequence (chain, as listed by the source Y152A Y152A limits assumed) above, with A312Y counted along it
Chain of Fc-NKG2D.AF, eNKG2D5 (Y152A/Y199F) (human) (chain, as listed by the source Y152A Y199F Y152A Y199F limits assumed): as the sequence (chain, as listed by the source Y152A Y152A limits assumed) above, with Y359F counted along it

B1: rituximab-ULBP2.R80W MicAbody (bispecific antibody, human IgG1, kappa, N297A)
heavy: QVQLQQPGAELVKPGASVKMSCKASGYTFTSYNMHWVKQTPGRGLEWIGAIYPGNGDTSYNQKFKGKATLTADKSSSTAYMQLSSLTSEDSAVYYCARSTYYGGDWYFNVWGAGTTVTVSAASTKGPSVFPLAPSSKSTSGGTAALGCLVKDYFPEPVTVSWNSGALTSGVHTFPAVLQSSGLYSLSSVVTVPSSSLGTQTYICNVNHKPSNTKVDKKVEPKSCDKTHTCPPCPAPELLGGPSVFLFPPKPKDTLMISRTPEVTCVVVAVSHEDPEVKFNWYVDGVEVHNAKTKPREEQYASTYRVVSVLTVLHQDWLNGKEYKCKVSNKALPAPIEKTISKAKGQPREPQVYTLPPSRDELTKNQVSLTCLVKGFYPSDIAVEWESNGQPENNYKTTPPVLDSDGSFFLYSKLTVDKSRWQQGNVFSCSVMHEALHNHYTQKSLSLSPGGGGSEPHSLSYDITVIPKFRPGPRWCAVQGQVDEKTFLHYDCGNKTVTPVSPLGKKLNVTTAWKAQNPVLREVVDILTEQLWDIQLENYTPKEPLTLQARMSCEQKAEGHSSGSWQFSFDGQIFLLFDSEKRMWTTVHPGARKMKEKWENDKVVAMSFHYFSMGDCIGWLEDFLMGMDSTLEPS
light: QIVLSQSPAILSASPGEKVTMTCRASSSVSYIHWFQQKPGSSPKPWIYATSNLASGVPVRFSGSGSGTSYSLTISRVEAEDAATYYCQQWTSNPPTFGGGTKLEIKTVAAPSVFIFPPSDEQLKSGTASVVCLLNNFYPREAKVQWKVDNALQSGNSQESVTEQDSKDSTYSLSSTLTLSKADYEKHKVYACEVTHQGLSSPVTKSFNRGEC
Turning to B1, in test [1], the binding result is “binds”.

B2: rituximab-ULBP2.C MicAbody (bispecific antibody, human IgG1, kappa)
heavy: not shown
light: QIVLSQSPAILSASPGEKVTMTCRASSSVSYIHWFQQKPGSSPKPWIYATSNLASGVPVRFSGSGSGTSYSLTISRVEAEDAATYYCQQWTSNPPTFGGGTKLEIKTVAAPSVFIFPPSDEQLKSGTASVVCLLNNFYPREAKVQWKVDNALQSGNSQESVTEQDSKDSTYSLSSTLTLSKADYEKHKVYACEVTHQGLSSPVTKSFNRGECAPTSSSGGGGSEPHSLSYDITVIPKFRPGPRWCAVQGQVDEKTFLHYDCGNKTVTPVSPLGKKLNVTTAWKAQNPVLREVVDILTEQLWDIQLENYTPKEPLTLQARMSCEQKAEGHSSGSWQFSFDGQIFLLFDSEKRMWTTVHPGARKMKEKWENDKVVATILWQTSMGDCIGWLEDFLMGMDSTLEPS
On to B2, for which the binding result in test [2] is on record as “no binding”.

B3: ULBP2.wt rituximab-MicAbody (bispecific antibody, human IgG1, kappa)
heavy: not shown
light: QIVLSQSPAILSASPGEKVTMTCRASSSVSYIHWFQQKPGSSPKPWIYATSNLASGVPVRFSGSGSGTSYSLTISRVEAEDAATYYCQQWTSNPPTFGGGTKLEIKRTVAAPSVFIFPPSDEQLKSGTASVVCLLNNFYPREAKVQWKVDNALQSGNSQESVTEQDSKDSTYSLSSTLTLSKADYEKHKVYACEVTHQGLSSPVTKSFNRGECAPTSSSGGGGSEPHSLSYDITVIPKFRPGPRWCAVQGQVDEKTFLHYDCGNKTVTPVSPLGKKLNVTTAWKAQNPVLREVVDILTEQLRDIQLENYTPKEPLTLQARMSCEQKAEGHSSGSWQFSFDGQIFLLFDSEKRMWTTVHPGARKMKEKWENDKVVAMSFHYFSMGDCIGWLEDFLMGMDSTLEPS
notes: Rituximab IgG1 with wild-type ULBP2 α1-α2 domain fused to the light chain; bivalent for the α1-α2 domain; also called ULBP2 MicAbody; ULBP2 wild-type MicAbody
In general, Kd refers to a measure of binding affinity in units of concentration. Regarding B3, the Kd in test [3] was determined as 1.4 nM. Moreover, the binding result in test [4] is “binds”.

B4: rituximab-ULBP2.S3 MicAbody (bispecific antibody, human IgG1, kappa)
heavy: not shown
light: QIVLSQSPAILSASPGEKVTMTCRASSSVSYIHWFQQKPGSSPKPWIYATSNLASGVPVRFSGSGSGTSYSLTISRVEAEDAATYYCQQWTSNPPTFGGGTKLEIKRTVAAPSVFIFPPSDEQLKSGTASVVCLLNNFYPREAKVQWKVDNALQSGNSQESVTEQDSKDSTYSLSSTLTLSKADYEKHKVYACEVTHQGLSSPVTKSFNRGECAPTSSSGGGGSEPHSLSYDITVIPKFRPGPRWCAVQGQVDEKTFLHYDCGNKTVTPVSPLGKKLNVTTAWKAQNPVLREVVDILTEQLWDIQLENYTPKEPLTLQARMSCEQKAEGHSSGSWQFSFDGQIFLLFDSEKRMWTTVHPGARKMKEKWENDKVVATKLYLWSMGDCIGWLEDFLMGMDSTLEPS
notes: also called ULBP2.S3 as a MicAbody
With B4, the binding result in test [5] and in test [6] was “no binding” throughout.

B5: rituximab-ULBP2.R MicAbody (bispecific antibody, human IgG1, kappa)
heavy: not shown
light: QIVLSQSPAILSASPGEKVTMTCRASSSVSYIHWFQQKPGSSPKPWIYATSNLASGVPVRFSGSGSGTSYSLTISRVEAEDAATYYCQQWTSNPPTFGGGTKLEIKRTVAAPSVFIFPPSDEQLKSGTASVVCLLNNFYPREAKVQWKVDNALQSGNSQESVTEQDSKDSTYSLSSTLTLSKADYEKHKVYACEVTHQGLSSPVTKSFNRGECAPTSSSGGGGSEPHSLSYDITVIPKFRPGPRWCAVQGQVDEKTFLHYDCGNKTVTPVSPLGKKLNVTTAWKAQNPVLREVVDILTEQLWDIQLENYTPKEPLTLQARMSCEQKAEGHSSGSWQFSFDGQIFLLFDSEKRMWTTVHPGARKMKEKWENDKVVATLLWGWSMGDCIGWLEDFLMGMDSTLEPS
notes: also called ULBP2.R rituximab-MicAbody; rituximab-MicAbody
As to B5, the binding result in test [5] and in test [7] was “no binding” each time.

B6: ULBP2.S3 α1-α2 domain, monomeric His-tagged format (ligand)
chain: EPHSLSYDITVIPKFRPGPRWCAVQGQVDEKTFLHYDCGNKTVTPVSPLGKKLNVTTAWKAQNPVLREVVDILTEQLWDIQLENYTPKEPLTLQARMSCEQKAEGHSSGSWQFSFDGQIFLLFDSEKRMWTTVHPGARKMKEKWENDKVVATKLYLWSMGDCIGWLEDFLMGMDSTLEPS
notes: also called ULBP2.S3 (monomeric His-tagged); not shown: His tag
For B6, the binding result in test [8] is “binds”.
